# B1: abciximab (antibody, chains of the INN, looked up, V domains shown)
# VH: EVQLQQSGTVLARPGASVKMSCEASGYTFTNYWMHWVKQRPGQGLEWIGAIYPGNSDTSYIQKFKGKAKLTAVTSTTSVYMELSSLTNEDSAVYYCTLYDGYYVFAYWGQGTLVTVSA
# VL: EIVLTQSPVTLSVTPGDSVSLSCRASRDISNNLHWFQQTSHESPRLLIKYASQSMSGIPSRFSGSGSGTDFTLSINSVETEDFGMYFCQQTNSWPYTFGGGTKLEIK
# modifications: Fab
# notes: platelet specific GPIIb-IIIa antagonist
# Test system: platelets
# Test: Shear-activated platelet translocation on von Willebrand Factor in the microfluidic device (blood perfusion assay, platelet tracking software)
# Type: cell-based
# Settings: whole blood treated with ReoPro 20 μg/ml for 20 minutes; vWF-coated test area; arterial shear rate 1500 s-1; compared to normal untreated platelets (FIG. 13)
# Excerpt: The microfluidic device was used to measure the shear-activated response of platelets in the presence of von Willebrand Factor (vWF). In particular, the effect of platelet specific GPIIb-IIIa antagonist (abciximab, ReoPro) on platelet function was examined. Abciximab (trade name ReoPro, distributed by Eli Lilly) is a platelet aggregation inhibitor used mainly during and after coronary artery procedures to prevent platelets from sticking together, by platelet GPIIb-IIIa-mediated aggregation, and subsequent thrombus formation.
# Blood Draw: Blood was obtained from volunteers by venopuncture using a 19-g needle attached to a polypropylene syringe containing anticoagulant solution. […]
# Matrix deposition on microfluidic device: The components of the flow cells were assembled using a jig to ensure patterned psa layers are aligned. […] Using silastic laboratory tubing, von Willebrand Factor solution (˜100 ug/ml protein solution in Phosphate Buffered Saline solution (PBS) was injected to fill the flow cell. The platform was then left to sit for 2 hours to immobilise the vWF on the glass base. (The flow cells were blocked with 1% BSA solution (in PBS) for 1 hour at room temperature). Deposition of von Willebrand Factor was by coating through adsorption. The platforms were rinsed with PBS solution and were then ready for perfusion assays. […]
molecule,measurement,value
B1,average velocity,increased
same,escape percentage,increased

# Reference: patent US9378557B2, “Microfluidic device for assessing object/test material interactions” (Dublin City University, priority 2008, dated 2016)
